Experimental data taken from the DeepSol protein solubility set.

Test: soluble on expression in E. coli; label from the status in PepcDB or PDB records

Sequence: MKFVNFDEYKQLVDYFRNRLNPNYSSPTMLFIISITGMRASEAFGLVWDDIDFNNNTIKCRRTWNYRNKVGGFKKPKTDAGIRDIVIDDESMQLLKDFREQQKTLFESLGIKPIHDFVCYHPYRKIITLSALQNTLDHALKKLNISTPLTVHGLRHTHASVLLYHGVDIMTVSKRLGHASVAITQQTYIHIIKLEHHHHHH
- soluble on expression in E. coli: not soluble

Sequence: MGSDKIHHHHHHMYRVMFVDDEYMILEGLKWIIPWQELGFEIVKTARSAQEALAFLETESIDVLLTDITMPEMSGIELIEQAKKKGHQFISLILSGYQEFDYVKKGMALQVQDYLLKPVNKQELLANIQRIKIELDQQKKSHARVRLYLENGLMRWLNDEISEGEYEELMQQFATIKPGDFTVLLVEAEMSFLETIKELFMKKGQLLFIESWMSTYHQLLLIYKGARQEAFLFIREIEAILAGQGQIFVGESVNEWETVYESYEKVKQLQAIETFYQEFLPNNQKEQMNRSAEDFTFLAFNQALMIGDMQTIQRELDAIFNQLSQQHATPEYVRYVVFLLFSDISRQYPTVLEENYEKIVEEIRASNNLNTLYALMQQVLAEVKNKPKIKKYSESVSQAVERIEQGYLEELNLKTVADELHLNPSYLGQIFKKETKRSFSQYLNQVRTKHAQKLLLYTDDTINEISEKVGFNNTNYFSKMFKKLNGITPKEFREQYQSNYAGVEE
- soluble on expression in E. coli: not soluble

Sequence: GSHMKHTELRAAVLDALEKHDTGATFFDGRPAVFDEADFPAVAVYLTGAEYTGEELDSDTWQAELHIEVFLPAQVPDSELDAWMESRIYPVMSDIPALSDLITSMVASGYDYRRDDDAGLWSSADLTYVITYEM
- soluble on expression in E. coli: soluble

Sequence: MSLKLTPEAAGTFAIAPTPFHDDGKIDDVSIDRLTDFYAEVGCEGVTVLGILGEAPKLDAAEAEAVATRFIKRAKSMQVIVGVSAPGFAAMRRLARLSMDAGAAGVMIAPPPSLRTDEQITTYFRQATEAIGDDVPWVLQDYPLTLSVVMTPKVIRQIVMDSASCVMLKHEDWPGLEKITTLRGFQKDGSLRPLSILCGNGGLFLDFEMERGADGAMTGYCFPDMLVDVVKLSKAGQRDLAHNLFDAHLPLIRYEHQQGVGLSVRKYVLKKRGLLSSSAQRKPGASLTDTAREEVDYLLSRLARVDKRADFEPRTKAAEEGHHHHHH
- soluble on expression in E. coli: soluble

Sequence: MKSVKNSWNSSIKDGEYQRKESQFRNWITTDGSAGITGRGGFQAEAGRYHLYVSLACPWAHRTLIFRQLKGLEDLITVSVVHPDMHENGWSFKHDEESAKLYGTTGDNLYDGKFISEKYLAQDPDYSGVNSVPVLWDKKDKVIVNNESSEIIRMFNSAFNDITGNTLDFYPEHLREKIDHENELVYHKINNGVYKTGFATTQEAYDKNVNELFAALEQIDEKLSKQRYLTGDEITEADWRLWATLVRFDSVYHTHFKCNLKLIKEFSNIYNYMLELFQVPNVAKTVNEAHIKRHYYASHVAINPYGIVPIAHQQDWTAQHNRDKQFS
- soluble on expression in E. coli: not soluble

Sequence: MGSDKIHHHHHHMSWKLSIIRLLNKSLVPNQQRALVVFTVLLLCACGKAKIPFSPITVSQTPVTTAQFTDDIDTVSTLEAKEEVHLAAQASGRIIELKIDQGDQVQPGQMLVVLDQAQIRAELADFKAQEQKNKLNWQRYEFLVPQGAASALDRDEYKAQYIASREKVKATEATLAYSNLRSPISGIVADVDVKVGDVIRSGDPFTKLIRNNRLFARVEVPATFSDRIKIGLPVFLNKTGSSDVMATGEINSVGPTVNRTTQGLLVKAAFENANGSLRNGQRLRTRVQLDTREELSVPFAAVTQTSGQSFVYRVGSFQELEDFSGNISLDKLRKLPPSTRFALQTPVTLGKLQKQRYAVTKGLKLGEQVITTNLLKLRHGMPISVKN
- soluble on expression in E. coli: not soluble

Sequence: MGSDKIHHHHHHMKIAFDAKRITHNATGLGNYSRFVVNSLSASFPEHTYQLYTPGKGKEALRKRIEERPSVSFHYPEGRFDKLFPSLWRTSGLTATLRKEHVDLFHGLSNEIPMNLKQNGIPAVVTIHDLIFLRYPQLYKPIDRSIYTYKFKQACLRSDKIIAISRQTMRDIRDFFHIPESKIEVVYQGCDPIFGQAVQEDVKSSVREKYQINGPYILYVGSIEERKNLLLLVKALKKLKEDISVIAIGKHTPYTDTVETYIRENNLSGRVHILTHIPFNELAAFYQMATLFVYPSFFEGFGIPILEAQLAGIPVIAATGSCLEEAGGPSALYTDPRNEQELRGLIESVLNEPKLAESMRSGGRENIRRFMPDVLAAHFMRVYENISRS
- soluble on expression in E. coli: not soluble

Sequence: MGSSHHHHHHGGTGENLYFQGGSGSSVTPTIPFKAWLKLHAKAICQALPLSLLIVVEARDLYYRATWDVAPVPPSKFEVGDVIAVCNRWYTLPTWSHVVYSWLSKVLLKSCWDDVGVISSVKNGTPHILYVDFHGVHEQPLATFLETRCPRGAAVRKLRRDEGVPSPSPAIADLFRKEVEMISVEPWFLFSASMRGGNEHKYYEFCVRMHEQRCKIRSMLQRRQSRPAIEAQQTSLKEMEVMRQHLAKFVEPVTHFHLYNGSLVASFFATYGLLDREMPSPSRYVPQDFAHTIPFLGATTLDEPIVFFRN
- soluble on expression in E. coli: not soluble

Sequence: MGSDKIHHHHHHMSNRIDHAKAAGAFISKTEHVAFHDRRLWDLREKRDAQAHGIAEWETMRELASGIKEHTLSNLSTYLEQFAAAAEANGVTVHWAATAEEHNALVHQLMSERGMTTLVKSKSMLTDECKMREYLEPRGITVMETDLGERIQQLDHQDPSHMVVPAVHKLRADVAELFGRTIGTDPKNSDIHYLAESQRMNTRPYFVREKTAGMTGCNFAVAETGTVVVCTNEGNADLSANVPPLHIASIGIEKLIPKVSDLGVFIRMLSRSALGSPITQYTSHFRAPRKGTEMHFILVDHGRSERLAMEDFWYSLKCIRCGACMNTCPVYRRSGGLSYGGTYSGPIGAIINPTFDLKRYSALPFASTLNGSCTNVCPVKINIHEQIYKWRTVIAGHHEVPFVKQEVLKMAGRLLASPTLYRATVSSMGSALRRLPNFVLYNPLNIWGKQRELPEAPKLTFHAWYKKNRGADHDNA
- soluble on expression in E. coli: not soluble

Sequence: MESKNKNGDYVIPDSVKNYDGEPLYILVSLWCKLQEKWISRNDIAEAFGINLRRASFIITYISRRKEKISFRVRYVSYGNLHYKRLEIFIYDVNLEAVPIESPGTTGPKRKTYRVGNGIVGQSNIWNEMIMRRKKES
- soluble on expression in E. coli: not soluble

Sequence: MGSDKIHHHHHHMKPWQGISEFAAVAEQQSFTAAARQLRLSVAQVSRNIAALEHRLQMQLLYRSTRSVSLTEEGKLYLPHCQHLVASLRDADQAIQQRTQQPQGLIRITAPVYYGERFIAPLLNDFLHIYPECRLDFQLTNEQVDLIEGSYDVAIRLGQLGNPRLRARKLGSRRHFVVGSPAYFEEFGRPQDINALDAHRCFTGTVRQWRFQVEGKLETVRPESYLHCNNGLALRDAAMKGLGLAMLPDYYVTDSLANGQLEEVLADYRQPDDGIWALYPENRQVIPKVRVLLDYLSGNLSGNLSGKFNTGEIEN
- soluble on expression in E. coli: not soluble

Sequence: MPCQKKSNPTELHISTGREIVQRNFVFRNTTGKDFLLKLHATNEAVTFPTEVFRFPPLAHRAIQFRVNSSKLSQWDKMNLLIKGYVLPIYAKSLKQFIDQKKTAGTKEQEAFSLSVKFTDQFSAPQTVINLPGYATCIESTDYPVDVEELDTTTAVNIERDVSTAVPIGSMMGFVEEYKRRQLNKGCWFSNYICGTEKQPEKQSMRSSRRSSRSSNHSAKSSKACRIQANKKNKSDVNVCLEATPCGGSTIQA
- soluble on expression in E. coli: not soluble

Sequence: MGHHHHHHSHLSPDRRASLLTSLMLVKRDYRYDRVLFWGRILGLVADYYIAQGLSEDQLAPRKTLYSLNCTEWSLLPPATEEMVAQSSVVKGRFMGDPSYEYEHTELQKVNEGEKVFEEEIVVQIKEETRLVSVIDQIDKAVAIIPRGALFKTPFGPTHVNRTFEGLSLSEAKKLSSYFHFREPVELKNKTLLEKADLDPSLDFMDSLEHDIPKGSWSIQMERGNALVVLRSLLWPGLTFYHAPRTKNYGYVYVGTGEKNMDLPFML
- soluble on expression in E. coli: not soluble

Sequence: MGSDKIHHHHHHMEWQAEQAYNHLPPLPLDSKLAELAETLPILKACIPARAALAELKQAGELLPNQGLLINLLPLLEAQGSSEIENIVTTTDKLFQYAQEDSQADPMTKEALRYRTALYQCFTQLSNRPLCVTTALEICSTIKSVQMDVRKVPGTSLTNQATGEVIYTPPAGESVIRDLLSNWEAFLHNQDDVDPLIKMAMAHYQFEAIHPFIDGNGRTGRVLNILYLIDQQLLSAPILYLSRYIVAHKQDYYRLLLNVTTQQEWQPWIIFILNAVEQTAKWTTHKIAAARELIAHTTEYVRQQLPKIYSHELVQVIFEQPYCRIQNLVESGLAKRQTASVYLKQLCDIGVLEEVQSGKEKLFVHPKFVTLMTKDSNQFSRYAL
- soluble on expression in E. coli: not soluble

Sequence: MGSDKIHHHHHHMWSHQSWQDSVYGHQTKATERLAHYAHIFNSVEGNTSFYATPAPQTVLNWHSATPDNFRFTFKLPQRITHQKQLQDCNQDLRDFFHIMAPLIEKTGIWKIQLPAHFGPEQLPVLARFLDHVPQGLTYGVEVRHFAFFAKGDAERTLNRLLIDKKVNRIIMDSRPVFALPPFNETIIDAHKKKPRVPVHPIATANNPVVRFIGQADGTLALLTQLGTTALPKDNDAFFTHWLKQLTLWLNEGREPYLFIHTPDNQTAPELAARLYRKLQLHIAEHIQLADIKLLEKKAEEKSAQMGLDW
- soluble on expression in E. coli: not soluble

Sequence: MGSDKIHHHHHHMMTYYFIADLHLNESQPQITHQFLQFMQQKAPLAQAVYILGDFFDFWIGDDEQSVLISQVKLALKKLTASGVKCYFICGNRDFLLGQTFAQQTGIQLLADYHLLDLFGERTLLCHGDTLCIDDIKYQQFRRRVHQKRLQKLFLWLPLTLRIKIAQKIRRKSKQDKKNKSADIMDVNQAFTAQKVHQYGATHLIHGHTHRQAVHFEQNFTRIVLGDWRPDRSSILKVDEKGFEFL
- soluble on expression in E. coli: not soluble

Sequence: MRYCQFEGCSNTTEKGAYCSEHARKSRKKKKPINVYHHDNKSFYRTKEWQDVADFVYEREGGCCQRCGRFVFGRQAHRHHVIPIKKNEMLKLDPNNIRLLCPKCHVIEENEADEKKVFPSYFKK
- soluble on expression in E. coli: not soluble

Sequence: GMNGFSQLEGLRGHPSVVRVIGHRGARGVMPENTLEGFAFTLAAGVRALEFDVVMTADGVPVVTHNHHLANAMTRDGQGHWLTGAERQVAEMTYAEIRALDVGGLDGRTVYGRRFPDQAFLTGIHVPRLGELLDLCAGYGDQAPYLLLELKSDPALMHDHAARAEMVAAVLADVRRYRMEPRTVMHSFDWALLGECRRQAPDLPTSYLSQLPENADDPGEDSAKPVGPDYDRMTESLPQAVASAGGQLWCPYFLDVTPELVAEAHDLGLIVLTWTVNEPEDIRRMATTGVDGIVTDYPGRTQRILIDMGLSWT
- soluble on expression in E. coli: soluble

Sequence: GPGSMLRWQMQPVRTSVRNFIASGFPSKKLRYARLVDVEECASRPQFQKLLQSYLSDFFAKSHENGSTGSSPWFTAVPPSLRNSVEETVNYLGMLVAIDFRHWGEDPPDATPTGSRVENICGFYAELPEGSAETSGSVSYGGKRLIRGSMAMVHLLCRAVEVYHLNWHCPQFLQQFATTEDAMEALERCFLGYREDGHTSMWMPAARERVELLLSLSRSLVEKDTSFFKMLCLSEGYLYHPIFPHLGFVEMLVELHPRYYDVCVLRGEVGGGKDSDQGDEIVIPMLKLAQLTVMAIEEAVSAMDTVAANTPNVTEAPFPFSGAHGVFKDKHHLTVCCDYQLPKALRSLGLVEYDSYLASLVDTGVLLAAGGVEECCIRVAALVASDLLLDYLRSSCACTTGREWRPESTSRVWDAPALDCMLWWIGRHYVDSAVKHHLCRTIMY
- soluble on expression in E. coli: not soluble

Sequence: MGSDKIHHHHHHMISMDEFIEFVRGGPLGPIKKWGTKWSLWPVHLVTACCGAELAHAFACGYDGERIGALNYGIARQTNLIIVEGAITRKMAKVLRITWEQMPDPKFVIVMGACGLQGGIFWNGYHMVKPSDVVPVDFFIPGCPPTPEALLRGIRQLQFKIETGEAKTSATFPEVPLEAGRKPRVLPKSPKKISKAPAVIVNAPKEVDWEFGQKLVEEIKAKVEAKSVTITGKNRIAVKVESDYIPRAAMRLREMGFDHVKNVNVIDVPNEDKFIVEYHFSSYSVKELMPVIVNVFADIPRENPRVKSLASMFPSADYMEREMHDFFGVIFEGNPWMGRKFLLAPDAPEFPLRKDFKLEEEVYVR
- soluble on expression in E. coli: not soluble
